# Assay results: publication PMC3742261, “Integrated Self-Assembly of the Mms6 Magnetosome Protein to Form an Iron-Responsive Structure” (International Journal of Molecular Sciences, 2013)
# Values joined by “and” are separate entries in the source; they are usually repeats but may differ in a detail not shown here. Equal entries are not always repeated.
# B1: C21Mms6 (synthetic peptide of the C-terminal 21 amino acids of Mms6) (peptide, UniProt Q2W8R5 113-133, looked up)
# peptide: KSRDIESAQSDEEVELRDALA
# notes: Mms6, Magnetospirillum magneticum AMB-1, C-terminal 21 amino acids; also called synthetic 21 amino acid peptide C-terminal domain; source: synthetic peptide, ordered from GenScript
# Key:
# [1] = molecular target: Mms6 I117G (Magnetospirillum magneticum strain AMB-1) (UniProt Q2W8R5); experiment: SEC; Superose 12 column, protein loaded at 0.2 mg/mL, BC100 buffer (20 mM Tris, 100 mM KCl, pH 7.5), 4 °C; percent of total protein in the void volume by peak integration
# [2] = molecular target: Mms6 L128G (Magnetospirillum magneticum strain AMB-1) (UniProt Q2W8R5); experiment: as above
# [3] = molecular target: Mms6 W79F,W95F (Magnetospirillum magneticum strain AMB-1) (UniProt Q2W8R5); experiment: as above
# [4] = molecular target: Mms6 L132G (Magnetospirillum magneticum strain AMB-1) (UniProt Q2W8R5); experiment: as above
# [5] = molecular target: Mms6 W95A (Magnetospirillum magneticum strain AMB-1) (UniProt Q2W8R5); experiment: as above
# [6] = molecular target: Mms6 W79F (Magnetospirillum magneticum strain AMB-1) (UniProt Q2W8R5); experiment: as above
# [7] = molecular target: Mms6 L84A, L86A, L88A, L90A, L92A (GL repeat replaced with a GA repeat) (Magnetospirillum magneticum strain AMB-1) (UniProt Q2W8R5); experiment: SEC; Superose 12 column, protein loaded at 1 mg/mL, 4 °C; percent of total protein in the void volume by peak integration
# [8] = molecular target: Mms6 L84A, L86A, L88A, L90A, L92A (GL repeat replaced with a GA repeat) (Magnetospirillum magneticum strain AMB-1) (UniProt Q2W8R5); experiment: SEC; Superose 12 column, protein loaded at 0.2 mg/mL, BC100 buffer (20 mM Tris, 100 mM KCl, pH 7.5), 4 °C; percent of total protein in the void volume by peak integration
# [9] = molecular target: Mms6 W79A (Magnetospirillum magneticum strain AMB-1) (UniProt Q2W8R5); experiment: as above
# [10] = molecular target: Mms6 W95F (Magnetospirillum magneticum strain AMB-1) (UniProt Q2W8R5); experiment: as above
# [11] = molecular target: Mms6 (wild type, mature form, His-tagged) (Magnetospirillum magneticum strain AMB-1) (UniProt Q2W8R5); experiment: as above
# [12] = molecular target: the molecule itself; experiment: SEC; Superdex Peptide 10/300 column, 80 micrograms C21Mms6, 10 mM Pi, pH 7.5; size from a standard curve
# [13] = molecular target: the molecule itself; experiment: SEC; Superdex Peptide 10/300 column, 80 micrograms C21Mms6, 20 mM Tris, pH 7.5; size from a standard curve
# [14] = molecular target: the molecule itself; experiment: SEC; Superdex Peptide 10/300 column, 80 micrograms C21Mms6, 10 mM Pi, 100 mM KCl, pH 7.5; size from a standard curve
# [15] = molecular target: the molecule itself; experiment: SEC; Superdex Peptide 10/300 column, 80 micrograms C21Mms6, 20 mM Tris, 100 mM KCl, pH 7.5; size from a standard curve
# [16] = molecular target: the molecule itself; experiment: SEC; Superdex Peptide 10/300 column, 80 micrograms C21Mms6, 50 mM Formate or Citrate, pH 3; size from a standard curve
# [17] = molecular target: the molecule itself; experiment: SEC; Superdex Peptide 10/300 column, 80 micrograms C21Mms6, 20 mM Tris, 1.5 or 3 M KCl, pH 7.5; size from a standard curve
# [18] = molecular target: the molecule itself; experiment: SEC; Superdex Peptide 10/300 column, 80 micrograms C21Mms6, 50 mM Formate or Citrate, pH 3 with FeCl3:protein = 8:1; size from a standard curve
molecule,measurement,setting,value
Mms6 I117G (from UniProt Q2W8R5 1-133) (natural protein),% protein in Vo,[1],94% and 95%
Mms6 L128G (from UniProt Q2W8R5 1-133) (natural protein),% protein in Vo,[2],63% and 86%
"Mms6 W79F,W95F (from UniProt Q2W8R5 1-133) (natural protein)",% protein in Vo,[3],75% and 82%
Mms6 L132G (from UniProt Q2W8R5 1-133) (natural protein),% protein in Vo,[4],29% and 37%
Mms6 W95A (from UniProt Q2W8R5 1-133) (natural protein),% protein in Vo,[5],49% and 70%
Mms6 W79F (from UniProt Q2W8R5 1-133) (natural protein),% protein in Vo,[6],96%
"Mms6 L84A, L86A, L88A, L90A, L92A (GL repeat replaced with a GA repeat) (from UniProt Q2W8R5 1-133) (natural protein)",% protein in Vo,[7],55%
same,% protein in Vo,[8],46% and 54%
Mms6 W79A (from UniProt Q2W8R5 1-133) (natural protein),% protein in Vo,[9],79% and 83%
Mms6 W95F (from UniProt Q2W8R5 1-133) (natural protein),% protein in Vo,[10],97%
"Mms6 (wild type, mature form, His-tagged) (from UniProt Q2W8R5 1-133) (natural protein)",% protein in Vo,[11],100%
B1,stoichiometry N,[12],7.3 C21Mms6 units/multimer
same,stoichiometry N,[13],2 C21Mms6 units/multimer
same,stoichiometry N,[14],4 C21Mms6 units/multimer
same,stoichiometry N,[15],4.1 C21Mms6 units/multimer
same,stoichiometry N,[16],2 C21Mms6 units/multimer
same,stoichiometry N,[17],1.8 C21Mms6 units/multimer
same,stoichiometry N,[18],2.1 C21Mms6 units/multimer
